The source of these data is patent US20220041723A1 (BIOINVENT INTERNATIONAL, published 2022).

Assay [1] addresses T1, recombinant human CD28-Fc protein (R&D Systems) (human, UniProt P10747 19-152).
T1 construct: also called human CD28 protein; not shown: Fc part of the bought fusion protein, not described
The assay is described as follows: ELISA, CD28-Fc coated at 1 pmol/well.

Assay [2] deals with T2, recombinant mouse CD28-Fc protein (R&D Systems) (mouse, UniProt P31041 20-149).
T2 construct: not shown: Fc part of the bought fusion protein, not described
The assay is described as follows: ELISA, mouse CD28-Fc coated at 0.3 pmol/well.

Assay [3] concerns the target T3, human CTLA-4 expressed on cells (293T cells stably transfected with human CTLA-4); in vitro-activated human … (human, UniProt P16410 36-223).
T3 construct: whole, on cells; also called hCTLA-4
The assay is described as follows: flow cytometry on hCTLA-4-transfected 293T cells. In general terms: A flow cytometer gives signals particle by particle.

Assay [4] has as its target T4, recombinant mouse CTLA-4-Fc protein (R&D Systems) (mouse, UniProt P09793 36-162).
T4 construct: not shown: Fc part of the bought fusion protein, not described
The assay is described as follows: ELISA, mouse CTLA-4-Fc coated at 0.3 pmol/well, IgG titrated. (In an ELISA, binding on a coated surface is turned into a signal by an enzyme label.)

In assay [5] the target is T5, recombinant human CTLA-4-Fc protein (R&D Systems) (human, UniProt P16410 37-162).
T5 construct: also called rhCTLA-4-Fc; human CTLA-4 protein; not shown: Fc part of the bought fusion protein, not described
The assay is described as follows: competitive flow cytometry: soluble rhCTLA-4-Fc blocks staining of activated human CD4+ T cells.

In assay [6] the target is T6, recombinant mouse CTLA-4-Fc protein (Sino Biological Inc.) (mouse, UniProt P09793 36-162).
T6 construct: also called murine CTLA-4; not shown: Fc part of the bought fusion protein, not described
The assay is described as follows: ligand blocking ELISA on coated mouse CTLA-4-Fc.

Assay [7] concerns the target T5, recombinant human CTLA-4-Fc protein …. The assay is described as follows: ELISA, CTLA-4-Fc coated, IgG titrated.
Assay [8] shares this target. Put plainly: ELISA, CTLA-4-Fc coated at 1 pmol/well, IgG titrated.

B1: 5-B07 (antibody, V domains shown)
VH: EVQLLESGGGLVQPGGSLRLSCAASGFTFSSYSMNWVRQAPGKGLEWVSAISGSGGSTYYADSVKGRFTISRDNSKNTLYLQMNSLRAEDTAVYYCARDRVEMNQWLADWGQGTLVTVSS
VL: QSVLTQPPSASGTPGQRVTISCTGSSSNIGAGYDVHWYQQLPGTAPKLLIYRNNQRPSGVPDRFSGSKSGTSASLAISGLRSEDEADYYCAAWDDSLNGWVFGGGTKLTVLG
notes: also called 5-B07 (human IgG format)
In the case of B1, the binding result in assay [1] is “no binding (tested: titrated 66 nM to 0.3 pM)”; in assay [2], “no binding (tested: titrated 66 nM to 0.3 pM)”; in assay [3] it was “binds”; in assay [4] it was “binds”; in assay [5], “binds”.

B2: m5-B07 (antibody clone 5-B07 in mIgG2a format) (antibody, V domains shown)
VH: EVQLLESGGGLVQPGGSLRLSCAASGFTFSSYSMNWVRQAPGKGLEWVSAISGSGGSTYYADSVKGRFTISRDNSKNTLYLQMNSLRAEDTAVYYCARDRVEMNQWLADWGQGTLVTVSS
VL: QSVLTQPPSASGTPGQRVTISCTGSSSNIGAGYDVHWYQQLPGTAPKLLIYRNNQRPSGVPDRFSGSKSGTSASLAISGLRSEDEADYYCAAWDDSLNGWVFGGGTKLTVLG
notes: also called 5-B07 in mouse IgG2a format; m5-B07 mAb
As to B2, the binding result in assay [6] was “binds”.

B3: 2-C06 (antibody, V domains shown)
VH: EVQLLESGGGLVQPGGSLRLSCAASGFTFSSYAMSWVRQAPGKGLEWVSGISGSGGYIHYADSVKGRFTISRDNSKNTLYLQMNSLRAEDTAVYYCATYSSGLHDAFDIWGQGTLVTVSS
VL: QSVLTQPPSASGTPGQRVTISCTGSSSNIGAGYDVHWYQQLPGTAPKLLIYDNNKRPSGVPDRFSGSKSGTSASLAISGLRSEDEADYYCAAWDDSLNGWVFGGGTKLTVLG
notes: also called 2-006
For B3, the binding result was “no binding (tested: titrated 66 nM to 0.3 pM)” in assay [1], “binds” in assay [7] and “binds” in assay [3].

B4: 4-E03 (antibody, human IgG1, lambda, V domains shown)
VH: EVQLLESGGGLVQPGGSLRLSCAASGFTFSDYYMSWVRQAPGKGLEWVSGISWSSRDKGYADSVKGRFTISRDNSKNTLYLQMNSLRAEDTAVYYCTTDLARYWGQGTLVTVSS
VL: QSVLTQPPSASGTPGQRVTISCTGSSSNIGAGYDVHWYQQLPGTAPKLLIYGNDNRPSGVPDRFSGSKSGTSASLAISGLRSEDEADYYCAVWDDSLNGVVFGGGTKLTVLG
notes: also called 4-E03 mAb; 4-E03 monoclonal antibody
As for B4, the binding result in assay [1] is “no binding (tested: titrated 66 nM to 0.3 pM)”; in assay [7] it was “binds”; in assay [3], “binds”.

B5: 2-F09 (antibody, V domains shown)
VH: EVQLLESGGGLVQPGGSLRLSCAASGFTFKAYSMSWIRQAPGKGLEWVSGISNTGGSTDFADSVKGRFTISRDNSKNTLYLQMNSLRAEDTAMYYCARLGYSGYDDRGMDVWGQGTLVTVSS
VL: QSVLTQPPSASGTPGQRVTISCSGSSSNIGSNYVYWYQQLPGTAPKLLIYGNSNRPSGVPDRFSGSKSGTSASLAISGLRSEDEADYYCQSYDSSLSGPVVFGGGTKLTVLG
For the molecule B5, the binding result in assay [3] and in assay [8] was “binds” in each case.
